Results as given in paper PMC9973331, “DNA Methylation and RNA-DNA Hybrids Regulate the Single-Molecule Localization of a DNA Methyltransferase on the Bacterial Nucleoid”.

T1: DnmA (WT) (Bacillus subtilis, UniProt O31504 1-879)
T1 sequence: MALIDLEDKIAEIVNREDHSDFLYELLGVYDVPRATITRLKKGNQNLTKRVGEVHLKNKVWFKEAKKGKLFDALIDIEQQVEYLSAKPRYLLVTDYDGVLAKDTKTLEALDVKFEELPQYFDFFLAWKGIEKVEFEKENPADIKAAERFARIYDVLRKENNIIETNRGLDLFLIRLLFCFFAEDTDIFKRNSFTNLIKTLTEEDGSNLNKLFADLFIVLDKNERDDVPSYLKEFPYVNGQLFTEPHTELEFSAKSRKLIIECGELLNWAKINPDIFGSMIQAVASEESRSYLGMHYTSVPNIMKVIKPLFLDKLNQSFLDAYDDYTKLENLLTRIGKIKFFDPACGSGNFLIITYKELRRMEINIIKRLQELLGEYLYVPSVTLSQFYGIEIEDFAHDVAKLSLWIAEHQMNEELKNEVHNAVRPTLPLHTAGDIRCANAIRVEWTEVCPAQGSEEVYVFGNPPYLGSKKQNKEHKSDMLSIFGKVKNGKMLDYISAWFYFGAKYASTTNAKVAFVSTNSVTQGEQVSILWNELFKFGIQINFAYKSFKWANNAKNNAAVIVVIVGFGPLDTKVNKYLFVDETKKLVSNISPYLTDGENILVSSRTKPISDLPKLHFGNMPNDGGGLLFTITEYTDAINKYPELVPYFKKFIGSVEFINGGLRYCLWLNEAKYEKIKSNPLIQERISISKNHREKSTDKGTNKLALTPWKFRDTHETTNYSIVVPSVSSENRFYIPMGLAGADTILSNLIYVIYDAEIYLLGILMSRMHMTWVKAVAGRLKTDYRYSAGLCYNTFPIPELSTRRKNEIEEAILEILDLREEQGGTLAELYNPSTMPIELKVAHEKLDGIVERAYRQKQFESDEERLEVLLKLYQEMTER

B1: unmethylated dsDNA (oTMN67/oTMN68) (dsDNA)
DNA 1: CAAAACAGGATATGAAATAGTATTGGACGAGAGCTTTTTGGTGGCTTATACTATAG
DNA 2: CTATAGTATAAGCCACCAAAAAGCTCTCGTCCAATACTATTTCATATCCTGTTTTG
B2: RNA-DNA hybrid (oTMN67/oJRR271) (DNA:RNA)
DNA: B1 DNA 1
RNA: CUAUAGUAUAAGCCACCAAAAAGCUCUCGUCCAAUACUAUUUCAUAUCCUGUUUUG
modifications: strand 2 is RNA
B3: methylated dsDNA (oNLF001/oTMN68) (dsDNA)
DNA 1: B1 DNA 1
DNA 2: B1 DNA 2
modifications: m6A in strand 1 (oNLF001), exact position not visible in printed string; presumably in GACGAG

target: T1, DnmA (WT); assay: EMSA; EMSA: 5x buffer 500 mM Tris-HCl pH 8, 1.25 M NaCl, 10% glycerol (1x: 100 mM Tris, 250 mM NaCl, 2% glycerol), 5 nM probe, 30 min at 25 C; 6% native PAGE in 1x TBE on ice; settings: protein: recombinant; tags: His-SUMO tag (pE-SUMO) removed by SUMO protease; label: 5' IRDye700 on strand 1; 5' IRDye800 on strand 2; blunt

| Binder | apparent K (half saturation) [nM] |
| --- | --- |
| B1 | 36.8 ± 14.2 |
| B2 | 321 ± 16.5 |
| B3 | 156 ± 76 |
